# B1: GlTIM (Giardia duodenalis) (protein)
# chain: MPARRPFIGGNFKCNGSLDFIKSHVAAIAAHKIPDSVDVVIAPSAVHLSTAIAANTSKQLRIAAQNVYLEGNGAWTGETSVEMLQDMGLKHVIVGHSERRRIMGETDEQSAKKAKRALEKGMTVIFCVGETLDERKANRTMEVNIAQLEALGKELGESKMLWKEVVIAYEPVWSIGTGVVATPEQAEEVHVGLRKWFAEKVCAEGAQHIRIIYGGSANGSNCEKLGQCPNIDGFLVGGASLKPEFMTMIDILTKTRT
# Substrate: O=C[C@H](O)COP(=O)(O)O
# Assay: Coupled alpha-glycerol-3-phosphate dehydrogenase assay following NADH decrease at 340 nm at 25°C in 100 mM triethanolamine/10 mM EDTA, pH 7.4, with 0.2 mM NADH and GAP varied from 0.3 to 3 mM, fitted to the Michaelis-Menten equation by non-linear regression.
# Format: biochemical
# Procedure: Glyceraldehyde 3-phosphate (GAP), buffers, salts and all the other analytical grade reagents were acquired from Sigma–Aldrich; α-glycerol-3-phosphate dehydrogenase (α-GDH) was from Roche, crystallization screen kits were obtained from Hampton Research. Restriction enzymes, DNA polymerase and T4 DNA ligase were purchased from New England BioLabs and Invitrogene. Oligonucleotide synthesis and DNA sequencing was performed at the Unidad de Biología Molecular, Instituto de Fisiología Celular, UNAM. Protein concentration was determined by the bicinchoninic acid method or by absorbance at 280 nm for pure GlTIM (ε280 = 26600 M^-1cm^-1). The TIM activity was determined at 25°C by a coupled assay, following the decrease in absorbance at 340 nm. The standard reaction mixture contained 100 mM triethanolamine/10 mM EDTA, pH 7.4 (TE buffer), 1 mM GAP, 0.2 mM NADH, and 0.9 units of α-GDH (20 μg/mL); the reaction was initiated by addition of 5 ng/mL of WT, C222V or C222M GlTIM, 10 ng/mL of C222N, 20 ng/mL of C222D or C222F, and 200 ng/mL of C222K. Kinetic, binding and stability data were analyzed by non-linear regression calculations with Origin software.
# Determination of Km and Vmax was performed by fitting initial velocity data at GAP concentrations ranging from 0.3 to 3 mM to the Michaelis-Menten equation (v = Vmax•S/Km+S) by non-linear regression calculations. The kcat was derived from Vmax by considering a molecular mass for the monomer of 27.7 kDa. The Ki for 2-phosphoglycolate (2-PG) was calculated by global fit of initial velocity curves (GAP from 0.3 to 3 mM) obtained at different fixed concentrations of the inhibitor. Prior to fitting collectively the data to the simple competitive inhibition equation (v = Vmax•S/Km(1+I/Ki)+S), individual data were plotted as double reciprocal plots to confirm competitive inhibition.
protein,measurement,value
B1,Km,620 ± 220 µM
same,Vmax,8050 µmol/min/mg
same,kcat,7330 s⁻¹

# Reference: publication PMC3718800, “Structural and Functional Perturbation of Giardia lamblia Triosephosphate Isomerase by Modification of a Non-Catalytic, Non-Conserved Region” (PLoS ONE, 2013)
